These results are taken from patent US20200277382A1 (TUFTS MEDICAL CENTER, published 2020).

In the experiment the target is T1, integrin α5 (obligate heterodimer α5β1) (human, UniProt P08648 42-1049; P05556 21-798).
T1 construct: whole, on cells; on the cells α5 stands as α5β1; also called alpha 5; ITGA5
Description: flow cytometry on a panel of cell lines with variable integrin α5 and alpha-V expression. On the procedure: Flow Cytometry: Cells with variable membrane integrin α5 and alpha-V expression were incubated with monoclonal α5 or alpha-V antibodies (Millipore MAB1956Z and MABT207), the bispecific antibody construct ITGA5B1xAV, or isotype control, for 1 hour at room temperature followed by 1 hour of incubation with a secondary-conjugated antibody, before being analyzed by flow cytometry.
Statistics: The mean fluorescent intensities (MFI) for the α5, alpha-V, and bispecific ITGA5B1xAV stained cell populations for each cell line were calculated from the flow cytometry data. Then a correlation coefficient between the sum of α5 and alpha-V MFIs and the bispecific ITGA5B1xAV was calculated.
The sum of integrin α5 and integrin alpha-V binding (MFI) was highly correlated with bispecific binding (correlation.9187; FIG. 3B).
On the technique in general: In flow cytometry, cells or beads pass a laser one at a time.

B1: ITGA5B1xAV bispecific, tetravalent antibody construct (bispecific antibody, human IgG2, kappa)
heavy: QVQLQQSGGELAKPGASVKVSCKASGYTFSSFWMHWVRQAPGQGLEWIGYINPRSGYTEYNEIFRDKATMTTDTSTSTAYMELSSLRSEDTAVYYCASFLGRGAMDYWGQGTTVTVSSASTKGPSVFPLAPCSRSTSESTAALGCLVKDYFPEPVTVSWNSGALTSGVHTFPAVLQSSGLYSLSSVVTVPSSNFGTQTYTCNVDHKPSNTKVDKTVERKCCVECPPCPAPPVAGPSVFLFPPKPKDTLMISRTPEVTCVVVDVSHEDPEVQFNWYVDGVEVHNAKTKPREEQFNSTFRVVSVLTVVHQDWLNGKEYKCKVSNKGLPAPIEKTISKTKGQPREPQVYTLPPSREEMTKNQVSLTCLVKGFYPSDIAVEWESNGQPENNYKTTPPMLDSDGSFFLYSKLTVDKSRWQQGNVFSCSVMHEALHNHYTQKSLSLSPGKGGGGSGGGGSQVQLKESGPGLVAPSQSLSITCTISGFSLTDYGVHWVRQPPGKGLEWLVVIWSDGSSTYNSALKSRMTIRKDNSKSQVFLIMNSLQTDDSAMYYCARHGTYYGMTTTGDALDYWGQGTSVTVSSGGGGSGGGGSGGGGSQIVLTQSPAIMSASLGERVTMTCTASSSVSSNYLHWYQQKPGSAPNLWIYSTSNLASGVPARFSGSGSGTSYSLTISSMEAEDAATYYCHQYLRSPPTFGGGTKLEIK
light: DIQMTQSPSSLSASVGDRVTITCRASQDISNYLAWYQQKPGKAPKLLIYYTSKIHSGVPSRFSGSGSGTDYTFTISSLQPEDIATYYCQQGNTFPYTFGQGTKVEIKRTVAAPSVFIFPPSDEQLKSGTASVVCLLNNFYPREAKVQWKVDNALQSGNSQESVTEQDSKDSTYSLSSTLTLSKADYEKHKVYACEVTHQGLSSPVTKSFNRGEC
notes: also called ITGa5β1xaV; bispecific ITGA5V
As to B1, the binding result is “binds”.
